Measurements as given in patent US6365154 (GlaxoSmithKline, dated 2002).
Values belong to the binder of their own block, whether it stands above or below them.

Legend:
[1] = target: T1, recombinant Tie2 extracellular domain-Fc fusion (UniProt Q02763 23-748); test: BIAcore SPR; mAb captured on rabbit anti-mouse IgG Fc, Tie2-Fc injected
T1 construct: extracellular domain; also called Tie2-Fc; Tie2 receptor-Fc fusion; not shown: It is probably human IgG Fc: human IgG1 was added to remove anti-Fc mAbs, and the fusion was ca
Experimental: The affinity of the purified mAbs was measured in the BIAcore. Using a flow rate of 10 ul/min, the mAb (diluted in HBS buffer) was injected over a rabbit anti-mouse IgG Fc surface, followed by buffer flow and the RU recorded. Tie2-Fc diluted in HBS buffer was then injected for 120s followed by buffer flow for 240s and regeneration of the sensor chip surface with an injection of 15 ul 0.1 M phosphoric acid. BIAcore software was used for association and dissociation-phase analysis. The murine monoclonal antibodies bound to soluble monomeric Tie2 receptor. The on-rates ($kass$) and off-rates ($kdiss$) were calculated.

[2] = target: Tie2 receptor on HEL cells or HUVECs (human, UniProt Q02763 23-1124); test: cell-based or functional assay
Sequence of Tie2 receptor on HEL cells or HUVECs (Q02763 23-1124): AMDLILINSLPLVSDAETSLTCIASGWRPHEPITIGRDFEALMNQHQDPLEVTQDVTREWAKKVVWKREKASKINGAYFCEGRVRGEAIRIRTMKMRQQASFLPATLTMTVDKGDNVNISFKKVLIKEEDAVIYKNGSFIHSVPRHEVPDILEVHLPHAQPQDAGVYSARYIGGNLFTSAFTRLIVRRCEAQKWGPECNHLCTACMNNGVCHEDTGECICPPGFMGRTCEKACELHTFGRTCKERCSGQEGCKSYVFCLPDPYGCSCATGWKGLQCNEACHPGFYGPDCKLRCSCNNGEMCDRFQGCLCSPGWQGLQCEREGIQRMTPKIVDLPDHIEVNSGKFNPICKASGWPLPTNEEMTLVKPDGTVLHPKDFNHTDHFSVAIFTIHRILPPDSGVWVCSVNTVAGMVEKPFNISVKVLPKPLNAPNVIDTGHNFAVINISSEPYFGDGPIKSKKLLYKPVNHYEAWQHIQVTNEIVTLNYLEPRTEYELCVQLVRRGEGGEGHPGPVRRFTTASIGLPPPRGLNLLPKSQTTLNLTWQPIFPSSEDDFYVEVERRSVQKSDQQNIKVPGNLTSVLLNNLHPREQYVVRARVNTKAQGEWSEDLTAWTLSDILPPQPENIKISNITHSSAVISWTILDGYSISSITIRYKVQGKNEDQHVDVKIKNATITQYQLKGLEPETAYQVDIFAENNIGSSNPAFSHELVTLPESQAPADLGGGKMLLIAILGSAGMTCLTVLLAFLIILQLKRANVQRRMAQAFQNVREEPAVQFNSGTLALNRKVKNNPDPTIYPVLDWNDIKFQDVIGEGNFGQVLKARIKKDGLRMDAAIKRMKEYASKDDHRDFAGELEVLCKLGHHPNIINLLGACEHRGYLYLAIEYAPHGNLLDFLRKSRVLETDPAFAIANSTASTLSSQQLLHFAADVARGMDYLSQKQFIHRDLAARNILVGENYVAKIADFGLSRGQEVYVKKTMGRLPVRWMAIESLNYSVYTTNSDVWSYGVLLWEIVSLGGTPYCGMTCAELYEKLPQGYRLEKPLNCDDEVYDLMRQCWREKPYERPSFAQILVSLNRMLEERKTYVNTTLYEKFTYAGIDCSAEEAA

T1 sequence (Q02763 23-748): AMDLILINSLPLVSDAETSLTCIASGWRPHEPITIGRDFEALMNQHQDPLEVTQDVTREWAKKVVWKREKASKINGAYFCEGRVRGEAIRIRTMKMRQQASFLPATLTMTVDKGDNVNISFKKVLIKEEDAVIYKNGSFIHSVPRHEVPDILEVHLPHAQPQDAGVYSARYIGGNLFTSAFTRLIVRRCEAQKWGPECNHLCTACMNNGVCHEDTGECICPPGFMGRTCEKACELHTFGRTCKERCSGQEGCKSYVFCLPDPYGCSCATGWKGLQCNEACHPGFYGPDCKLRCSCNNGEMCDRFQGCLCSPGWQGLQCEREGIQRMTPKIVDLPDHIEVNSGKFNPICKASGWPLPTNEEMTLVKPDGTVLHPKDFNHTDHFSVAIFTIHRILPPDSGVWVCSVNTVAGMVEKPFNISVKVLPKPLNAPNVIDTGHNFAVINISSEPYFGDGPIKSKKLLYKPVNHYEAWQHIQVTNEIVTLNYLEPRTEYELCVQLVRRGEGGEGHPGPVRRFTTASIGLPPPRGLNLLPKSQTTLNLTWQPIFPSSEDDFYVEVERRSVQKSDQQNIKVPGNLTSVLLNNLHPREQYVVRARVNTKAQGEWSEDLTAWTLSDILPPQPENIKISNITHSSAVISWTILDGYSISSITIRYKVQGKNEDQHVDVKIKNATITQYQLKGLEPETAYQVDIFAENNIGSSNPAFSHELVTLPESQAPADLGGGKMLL

Kd [1]: 3.1 nM
B1: murine monoclonal antibody 13H10 (antibody, V domains shown)
VH: QIQLVQSGPELKKPGETVKISCKASGYTFTDFSIHWVKQAPGKGLKWMGWINTETGETTYAEDFKGRFAFSLETSASTAYLQINNLKNEDTATYFCSRRYDYDTWFAYWGQGTLVTVS
VL: DIVMTQAALSVPVTPGESVSISCRSSSSLLHRNGNTYLYWFLQRPGQSPQLLIYRMSNLASGVPDRFSGSGSGTAFTLRISRVEAEDVGVYYCMQRLEYPFTFGGGTKLEIKR
notes: Constant regions are mouse IgG heavy and kappa light, going by the PCR primers; also called mAb 13H10; mAb 13H 10

Tie2 receptor tyrosine phosphorylation (immunoprecipitation and anti-phosphotyrosine Western blot, ratio to Tie-2 staining) [2]: > 2 fold over basal | Kd [1]: 0.24 nM
B2: murine monoclonal antibody 15B8 (antibody, V domains shown)
VH: QVQLQQPGVVLVMPGASVKLSCKASGYTFASYWMHWVKQRPGQGLEWIGEIDPSDSYRNYNQKFKGKATLTVDKSSSTVNMQLSSLTSEDSAVYYCAKTSGIGRAMDYWGQGTSVTVSS
VL: DIQMIQSPASLSASVGETVTITCRASENIYSFVTWYQQKQGKSPQLLVFNAKNLVEGVPSSFSGSGSGTQFSLKIDSLQPEDFGTYYCQHHYSIPYTFGGGTKLEMR
notes: Constant regions are mouse IgG heavy and kappa light, going by the PCR primers; also called mAb 15B8; mAb 1 B 8
